In US20140045930A1 (published 2014):

Target: E. coli ribosomal protein L16 (endogenous) (E. coli, UniProt A7ZSK2 1-136)
Assay: co-immunoprecipitation with anti-GFP (GFP-nanotrap), SDS-PAGE, identification by LC-MS/MS

B1: GFP-YcfD (N-terminally GFP-tagged YcfD) (other)
chain: MEYQLTLNWPDFLERHWQKRPVVLKRGFNNFIDPISPDELAGLAMESEVDSRLVSHQDGKWQVSHGPFESYDHLGETNWSLLVQAVNHWHEPTAALMRPFRELPDWRIDDLMISFSVPGGGVGPHLDQYDVFIIQGTGRRRWRVGEKLQMKQHCPHPDLLQVDPFEAIIDEELEPGDILYIPPGFPHEGYALENAMNYSVGFRAPNTRELISGFADYVLQRELGGNYYSDPDVPPRAHPADVLPQEMDKLREMMLELINQPEHFKQWFGEFISQSRHELDIAPPEPPYQPDEIYDALKQGEVLVRLGGLRVLRIGDDVYANGEKIDSPHRPALDALASNIALTAENFGDALEDPSFLAMLAALVNSGYWFFEG
notes: also called green fluorescent protein (GFP)-tagged YcfD
- binding result: binds
